Each block holds one molecule with its values, some of them ahead of it.
Tests used:
[1] = target: replisome assembled in vitro on origin DNA (CMG-containing) (S. cerevisiae) (UniProt P29469)
[2] = target: T1, Cdc45-MCM-GINS (CMG) helicase (S. cerevisiae, UniProt P29469 1-868; P24279 1-971; P30665 1-933; P29496 1-775; P53091 1-1017; P38132 …); test: co-sedimentation; 10-30% glycerol gradient without cross-linker; 0.5 μM CMG with 1.5 molar excess of fork DNA, Csm3/Tof1 (or mutant), Ctf4 and Mrc1; 500 μM AMP-PNP, 3 mM Mg(OAc)2, 150 mM NaOAc, pH 7.5; 200,000g, 4°C, 2 h; silver-stained SDS-PAGE of fractions; conditions: both partners purified
T1 construct: Mcm2, S. cerevisiae, subunit of MCM in CMG; Mcm3, S. cerevisiae, subunit of MCM in CMG; Mcm4, S. cerevisiae, subunit of MCM in CMG; Mcm5, S. cerevisiae, subunit of MCM in CMG; Mcm6, S. cerevisiae, subunit of MCM in CMG; Mcm7, S. cerevisiae, subunit of MCM in CMG; Cdc45, S. cerevisiae, subunit of CMG; Psf1, S. cerevisiae, subunit of GINS in CMG; Psf2, S. cerevisiae, subunit of GINS in CMG; Psf3, …

Cdc45 = target: T2, Cdc45 (S. cerevisiae, UniProt Q08032 1-650); test: cryo-EM structure; reconstituted from purified CMG, fork DNA, Csm3/Tof1, Ctf4, Mrc1 with AMP-PNP; glycerol gradient fixation (glutaraldehyde and BS3); conditions: both partners purified
T2 construct: Cdc45, S. cerevisiae, subunit of CMG; source: S. cerevisiae, overexpressed, purified as part of CMG; in XL-MS part of the co-expressed, co-purified complex (yJY74)
T2 sequence: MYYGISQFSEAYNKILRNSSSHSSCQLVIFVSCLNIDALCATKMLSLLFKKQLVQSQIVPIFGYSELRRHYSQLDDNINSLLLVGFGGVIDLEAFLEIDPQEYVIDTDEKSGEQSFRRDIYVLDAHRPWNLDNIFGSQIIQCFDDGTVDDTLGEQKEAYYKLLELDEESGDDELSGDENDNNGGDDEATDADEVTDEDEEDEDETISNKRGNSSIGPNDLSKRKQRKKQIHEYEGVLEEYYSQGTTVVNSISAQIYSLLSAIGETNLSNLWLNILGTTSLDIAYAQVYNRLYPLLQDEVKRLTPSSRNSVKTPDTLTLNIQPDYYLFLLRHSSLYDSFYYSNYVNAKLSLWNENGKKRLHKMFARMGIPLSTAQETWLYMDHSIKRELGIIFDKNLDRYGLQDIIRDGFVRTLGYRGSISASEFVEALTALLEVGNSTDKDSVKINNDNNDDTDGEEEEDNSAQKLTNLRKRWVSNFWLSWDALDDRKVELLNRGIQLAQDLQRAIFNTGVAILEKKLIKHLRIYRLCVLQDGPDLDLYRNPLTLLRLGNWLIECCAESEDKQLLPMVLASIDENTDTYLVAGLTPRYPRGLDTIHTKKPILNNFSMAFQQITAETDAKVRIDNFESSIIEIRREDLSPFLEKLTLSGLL

Sequence of replisome assembled in vitro on origin DNA (CMG-containing) (S. cerevisiae) (P29469 whole entry, looked up): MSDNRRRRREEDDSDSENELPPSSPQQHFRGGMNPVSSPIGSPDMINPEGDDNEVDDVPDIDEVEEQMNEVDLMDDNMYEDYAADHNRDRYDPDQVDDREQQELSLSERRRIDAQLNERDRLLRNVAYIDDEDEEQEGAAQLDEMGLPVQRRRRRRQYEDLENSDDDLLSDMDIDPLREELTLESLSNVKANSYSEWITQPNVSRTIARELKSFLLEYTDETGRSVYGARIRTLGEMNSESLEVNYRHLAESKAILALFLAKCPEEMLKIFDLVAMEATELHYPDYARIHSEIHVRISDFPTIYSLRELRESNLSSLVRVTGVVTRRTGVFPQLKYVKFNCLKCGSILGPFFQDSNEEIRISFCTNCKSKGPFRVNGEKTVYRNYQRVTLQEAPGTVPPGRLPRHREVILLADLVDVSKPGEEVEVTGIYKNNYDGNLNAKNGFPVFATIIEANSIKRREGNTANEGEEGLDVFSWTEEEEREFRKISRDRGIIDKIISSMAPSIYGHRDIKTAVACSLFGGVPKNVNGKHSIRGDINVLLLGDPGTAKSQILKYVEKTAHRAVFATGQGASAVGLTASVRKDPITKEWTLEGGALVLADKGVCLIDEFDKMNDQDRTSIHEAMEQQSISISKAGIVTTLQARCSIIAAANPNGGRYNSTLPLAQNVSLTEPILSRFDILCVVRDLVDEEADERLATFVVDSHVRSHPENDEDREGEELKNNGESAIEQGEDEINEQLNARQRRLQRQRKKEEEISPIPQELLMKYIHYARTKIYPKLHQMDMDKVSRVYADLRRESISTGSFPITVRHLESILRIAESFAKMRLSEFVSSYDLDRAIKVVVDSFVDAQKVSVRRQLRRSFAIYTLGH

Molecule: Csm3/Tof1 heterodimer (from UniProt Q04659 1-317; P53840 1-1238) (complex)
- concentration of Csm3/Tof1 that saturates origin-dependent replication (Figure S10H) [1]: 10 nM

B3: Psf2 (natural protein, S. cerevisiae)
chain: MSLPAHLQQTFSPEEIQFIVENEPIKIFPRITTRQKIRGDDRGTGNHTRWQLITTDDKALNNMVAMRSTEVVLWIALLLKQQSKCSIVAPQWLTTKELDRKIQYEKTHPDRFSELPWNWLVLARILFNKAKDDFHDPIHELRGKIQDLREIRQIKVLKGLKYLNESHLQLDNLSLLEINELRPFITEIMDKLREIHTASLTAGTENDEEEFNI
notes: also called GINS subunit Psf2; source: S. cerevisiae, overexpressed, purified as part of CMG
- binding result (Cdc45): binds

Other lines, results leading:

- stoichiometry N [2]: ~1 Mrc1 per complex
B1: Mrc1 (natural protein, S. cerevisiae, UniProt P25588 1-1096, looked up)
chain: MDDALHALSSLTAKKRTTTYKKVAVPILDENDNTNGNGPNDIDNPPELTGNGFLFANATLNRVKNRLEGKKAPEQNHNNGKDRSENSLPTQLISNLYDGGEELEKSEVKDNSYSEKNVSSSFTQTQRIPVSIQQDKVFNVPIHSVNDGKPTQLIKEDGLVNETSQALKTPLTTGRPGATQRIDSSGATSQTQPIKSIEPQSQIITTSSNHSNALSPKIPIIPTELIGTSPLFQSIQNRGPDTQMDVPPQTAHDEDKTQAIGIPQATHQEQKTQIDTVAQTLQDEVPHTLKIREIQSELASEDSKREKARNVEYKKPQKPIPTKKFFSKESFLADFDDSSSNEDDDIKLENAHPKPVQNDDELHENKSVELNLTDETRINEKRVPLLSSYANNLKREIDSSKCITLDLDSDSDEYGDDDMDSIKLSKDESVLPISQLSKATILNLKARLSKQNQKLSQRPNKSKDPKVDHNVLLNTLRKASRKQILDHQKEVIETKGLKLEDMAKEKEIVENLLEQEILRNKRIRQKEKRREKLEENDFQLNAHDSGSDSGSESSGFALSGNEIADYESSGSENDNRRESDSEKEDDEIILKQKKSHHVKHIINESDSDTEVEAKPKEKADESLPKRIAINLGHYGDNIGEDTDKFQETNVLDTQNIEEVMAERNTIENEVKDDVYVNEEADEAIRRQLIDKEKLQLKQKEKEHEAKIKELKKRGVTNFFEMEAEESEDEWHGIGGADGEGSDDYDSDLEKMIDDYSKNNFNPHEIREMLAAENKEMDIKMINKILYDIKNGGFRNKRAKNSLELELSDDDEDDVLQQYRLKRRELMRKRRLEIGDDAKLVKNPKSSAFFESMVEDIIEYKNPFGAEEEYNLDITSTATDLDTQDNSINVGDNTGNNEQKPVDQKNKKVIISEDFVQKSLSFLKSNNYEDFETDKELSRIQHGNDEAIEDLYTLKQNSSIKSFTNSQTDSTTSKTVNTIIDLEKRPEDEDEVENGDTSLVGVFKHPSIIKSFASRTDINDKFKEGNKTVKILKSYKTVGSSKASITYMGKTRKLIAPKRKTEGSHRYHHDHHNKKMKMKTKTKSNKLFESGQDSFDN
notes: Mrc1, S. cerevisiae; printed as a 125 kDa protein; The FLAG purification is told for the separately purified protein; source: S. cerevisiae, overexpressed at 20°C, purified (anti-FLAG M2, Superose 6)

- binding result [2]: binds
B2: Csm3^(K47A, R48A, R49A, Q51A, K53A)/Tof1^(K400A, R401A, K404A) (complex, S. cerevisiae)
chain 1: MDQDFDSLLLGFNDSDSVQKDPTVPNGLDGSVVDPTIADPTAITARAAAPAVALTAEKLLSDKGLPYVLKNAHKRIRISSKKNSYDNLSNIIQFYQLWAHELFPKAKFKDFMKICQTVGKTDPVLREYRVSLFRDEMGMSFDVGTRETGQDLERQSPMVEEHVTSAEERPIVADSFAQDKRNVNNVDYDNDEDDDIYHLSYRNRRGRVLDERGNNETVLNNVVPPKEDLDALLKTFRVQGPVGLEENEKKLLLGWLDAHRKMEKGSMTEEDVQLIQSLEEWEMNDIEGQHTHYDLLPGGDEFGVDQDELDAMKEMGF
chain 2: MSADLQQGTTNAADFSLTVLRARIALLATAIGGPDYTSQIDPPPYKLGDDCLACLKDLKRWFKLVDDQQKRWDVAMAVAEYRILTDDLLPILIDWENKCSLAAKLAKNNPDHEEFRNKAYYDKIALNCLQLLVLMTWPLIVTEQSSSNQITLYGELKKHQLVYKKTILSMESGKVLRAAIRLALDVIKIDRLSRTPRDNMVLKLVLNFFRNVIAIEPGEFTINTKKSMPKKGITSIDTLPPNVSMDDISLNTVISSFHKNKVFGFLLTLTSSLSKEFDQDFINIPLLEIMFYFTKDVNQELLFPRQFETGTHSKVVNKNESSSANNIVTSAGFELSKLLQKEHQMRKNVIKHTSARHSRFGGLLSIQTPDKTRLTVSGSQALVDEKIALQKLDDSKKWNAAIIAKHQSVAAEGLPNSLLNSQTGKAIFFTESNGKHFKEFINNFIDSGFNILLHSVTNYFTTEQDRMVTLEQVEYLLFFAWFVKYQLLRSKIDNSADIKQVSEALKEVTFILVSSLLRSAYDLKNWTVTHAGMIAFNELLNLVSRTKAAQEEDSTDIEFIVSRLFSDERIQLLSNLPKIGSKYSLQFMKSCIELTHSVLKVLEQYSDDKTLVIEGKSRRQKKFNISEGDITKLIEEENVDRDEALDILTSSLRSIEVNFQKVQANYMTEPVIETYINFLERFRELEDDSIKKVFSFFHRVFVQAKEQALLFRFDLIILLREMLSPDGLDRMSRSRKYVSQFSDYFLARLKKRLKKSPAWFVGLLFPPLHNSEVGFYQRYGEYNVLNNESMYAAPASQFKPIPDEEALPPSILLDMKYGVLVSTLLDDGKTELLDQLLKHITHTLDIFKSWLTVNVNAGKETVNPPNEYFTLTGVLNNDPIFKDKDYRALLLLIGYSIPRKINEPCFLPGTVEVSDLTVSCELVKKYLSTPFETPNGLPSSSYLLRVRSEKDSFSHNEQDGWEGDDDYDYNDPYIVPDDQILSKSDAAYFKDLDNNASDKLKGTKFSKGIARSKKKDKRKRRKGEAKTNLPMFGDQDDERPQTVRERHGVFSKEFISDSEDDEDLMNPIFFENETYMRWLLDKNNGQLTEDRYIQFAKFAAERMNNGGVVTGDYTSLFGGSIPSIESIRATESSSFAPDKSLISLASHVASEMSIFDVNNNNNNQLSDDDVNSESRNSLGSSQPSNSQNMFQSEVYSRKESTKRSLEASAADESDEDEEAIRLFGKKSRVVLSQGDSDD
notes: also called Csm3-5A/Tof1-3A; source: S. cerevisiae, overexpressed, purified as a heterodimer

From publication PMC7276988, “Cryo-EM Structure of the Fork Protection Complex Bound to CMG at a Replication Fork” (Molecular Cell, 2020)
